Residue numbers refer to the chain shown, from its start.
B1: CL-510433 (antibody, V domains shown)
VH: QVQLVESGGGVVQPGRSLRLSCVASGFTFSSYGMHWVRQAPGKGLEWVAVIWYDGSNKYYADSVKGRFTVSRDNSKNTLYLQMNSLRAEDTAVYYCARVYYYGSGSYSPYYYALDVWGHGTTVTVSS
VL: EIVMTQSPATLSVSPGERATLSCRASQSISSNLAWYQQKPGQAPRLLIYGASIRATGIPARFSGSGSGTEFTLSISILQSEDFAIYYCQQYNNWWTFGQGTKVEIK
modifications: peptides N-terminally acetylated and C-terminally amidated
B2: CL-509880 (antibody, V domains shown)
VH: QVQLVESGGGVVQPGRSLRLSCAASGFTFSNSGMHWVRQAPGKGLEWVAVIWYDGSNKYYADSVKGRFTVTRDNSKNTLYLQMNSLRAEDTAVYYCVRAYYGSGSYHFKYGMDVWGQGTTVTVSS
VL: not shown
modifications: peptides N-terminally acetylated and C-terminally amidated
B3: Ky230 (antibody, V domains shown)
VH: QVQLVESGGGVVQPGRSLRLSCAASGFTFSDYGMHWVRQAPGKGLEWVAIIWHDGSNKYYVDSVKGRFTISRDNSKNTLYLQMNSLRAEDTAVYYCARAASSFGSGFDYWGQGTLVTVSS
VL: DVVMTQSPLSLPVTLGQPASIFCRSSQSLVYSDGNTYLNWFQRRPGQSPRRLIYKVSDRDSGVPDRFSGSGSGTDFTLQISRVEAEDVGVYYCMQGTHWPPTFGQGTKVEIK
modifications: peptides N-terminally acetylated and C-terminally amidated
B4: CL-462788 (antibody, V domains shown)
VH: QVQLVESGGGVVQPGRSLRLSCAASGFTFRNYGMHWVRQAPGKGLEWVAIIWYDGSYKFYADSVKGRFTISRDNSKNTLYLQMNSLRAEDTAMYYCARDDALELRSFDIWGQGTMVTVSS
VL: B3 VL with F22S, G34E, N39S, R43Q, V56I, D58N, Q79K, P101R, K108E
modifications: peptides N-terminally acetylated and C-terminally amidated
B5: Ky311 (antibody, V domains shown)
VH: QMHLVESGGGVVQPGRSLRLSCVASGFTFNNHGMHWVRQAPGKGLEWVAVIWHDGSNKFYADSVNGRFIVSRDNSKNTLYLHMNSLRAEDTAVYYCARDFFVSGSYNYFDPWGQGTLVTVSS
VL: EIVLTQSPVTLSLSPGERATLSCRASQSVSNYLAWYQQKPGQAPRLLIYDAANRATGTPARFSGSGSGTDFTLTISSLEPEDFAVYFCQQRSKWFTFGPGTKLDIK
modifications: peptides N-terminally acetylated and C-terminally amidated
B6: CL-512023 (antibody, V domains shown)
VH: QVQLMESGGGVVQPGRSLRLSCEASGFTFSNSGMHWVRQAPGKGLEWVAIIWYDGSNRYYVDSVKGRFTISRDNSKNTLYLQMNSLRAEDTAVYYCARDGGNRYGYGWFDSWGQGTLVTVSS
VL: QSVLTQPPSVSGAPGQRVTISCTGSSSNIGAGYDVHWYQQLPGTAPKLLIYGNTNRPSGVPDRFSGSKSGTSASLAITGLQAEDEADYYCQSYDSSLGGSRRVFGGGTKLTVL
modifications: peptides N-terminally acetylated and C-terminally amidated
B7: CL-449759 (antibody, V domains shown)
VH: QVHLVESGGGVVQPGESQRLSCAASGFTFSNYGMHWVRQAPGKGLEWVALIWYDGSNKFYADSVKGRFTISRDNSKNTLYLHMNSLRAEDTAMYYCAKVPNWNDDKYTMDVWGQGTTVTVTS
VL: not shown
modifications: peptides N-terminally acetylated and C-terminally amidated
B8: CL-447563 (antibody, V domains shown)
VH: QVQLVASGGGVVQPGRSLRLSCAASGFTFSNYGMHWVRQAPGKGLEWVAIIWYDGSKKYYSDSVKGRFTISRDNSKNTLYLQMNSLRAEDTAVYYCARAYGSGSYSDDYYGMDVWGQGTTVTVSS
VL: DIQMTQSPSTLSASVGDRVTITCRASQSISTWLAWYQQKPGKAPKLLIYKASNLESGVPSRFSGSGSGTEFTLTISSLQPDDFATYYCQQYYSYWTFGQGTKVEIK
modifications: peptides N-terminally acetylated and C-terminally amidated
B9: CL-511296 (antibody, V domains shown)
VH: QVQLVASGGGVVQPGRSQRLSCAASGFTFSNYGMHWVRQSPGRGLEWVAIIWYDGSNKFYADSVKGRFTISRDNSRNTLFLQMNSLRAEDTAIYYCAKSEERTSDNYFKYGMDVWGQGTTVIVST
VL: B8 VL with T31S, T74S, S77N, Y87F, Y92T
modifications: peptides N-terminally acetylated and C-terminally amidated
B10: CL-512011 (antibody, V domains shown)
VH: QVQLVESGGGVVQPGRSLRLSCVTSGFTFSSFGMHWVRQAPGKGLEWVALIWYDGSHKFYADSLTGRFTISRDNSKNTLYLQMNSLRVEDTAVYYCARAHAVTTANDKYGTDVWGQGTTVNVSP
VL: B8 VL with T31S, Q38H, K42N, Y87F, Y92N, I105V
modifications: peptides N-terminally acetylated and C-terminally amidated
B11: CL-512319 (antibody, V domains shown)
VH: QVQLVESGGGVVQPGRSLRLSCAASGFTFSNFGMHWVRQAPGKGLEWVAVIWYDGSHKFYADSLKGRFTISRDNSKNTLYLQMNNLRAEDTAVYYCARAHPVTTDYDKYGMDVWGQGTTVTVSS
VL: B8 VL with A13S, T31I, Y36I, N53S, Y91F, Q99L
modifications: peptides N-terminally acetylated and C-terminally amidated
B12: CL-513069 (antibody, V domains shown)
VH: QVQLVESGGGVVQPGKSLRLSCEASGFTFSNYGMHWVRQAPGKGLDWVAIIWHDGGNKFYADSVRGRFTISRDNSKNTLFLQMNSLRAEDSAVYYCARVFDFRDSCYTMDVWGQGTTVTVSS
VL: B8 VL with T31S, N53S, T72S, Y92T, S93R, K102R, K106Q
modifications: peptides N-terminally acetylated and C-terminally amidated
B13: Ky15.5 (antibody, V domains shown)
VH: QVQMVASGGGVVQPGRSLRLSCAVSGFTFRNFGMHWVRQDPGRGLEWVAIIWYDGSYEFYADSVKGRFTISRDNSKNTLYLQMNSLRAEDTAVYYCARSYGSLTGDETKYGMDVWGQGTTVTVSS
VL: B8 VL with T31S, Y36F, N53S, Y92K, S93N
modifications: peptides N-terminally acetylated and C-terminally amidated
B14: CL-512275 (antibody, V domains shown)
VH: B10 VH with R16G, L18F, V23E, S31N, A101S, N121T
VL: B8 VL with T31S, Q38H, K42R, N53S, V58I, Y87F, Y92N
modifications: peptides N-terminally acetylated and C-terminally amidated
B15: CL-511026 (antibody, V domains shown)
VH: QVQLVESGGGVVQPGRSLRLSCAASGFTFSNFGMHWVRQAPDRGLEWVSIIWYDGSNKFYADSVKGRFTISRDNSKNTLFLQMDSLRAEDTAVYYCAKAEMRTSDYYNYGMDVWGQGTTVTVSS
VL: B8 VL with T31S, N53S, G68A, S76R, K106N
modifications: peptides N-terminally acetylated and C-terminally amidated
B16: CL-508758 (antibody, V domains shown)
VH: QVQLVESGGGVVQPGRSLRLSCAASGFTFSNYGMHWVRQTPGRDLEWVAIIWYDGSYKFYADSVKGRFSISRDNSKNTLNLEMKSLRVEDTAVYYCAKAYDTSSDDKYGMDVWGQGTTVTVTS
VL: B8 VL with T31I, K50R, N53D, E70G, Y92N
modifications: peptides N-terminally acetylated and C-terminally amidated
B17: CL-510458 (antibody, V domains shown)
VH: QVQLVESGGGVVQPGRSLRLSCAASGFTFNNYGMHWVRQAPGKGLEWVAVIWYDGSNKFHADSVKGRFTISRDNSKNTLYLQMNSLRAEDTALYYCARVYYYDSGSYLDYWGQGTLVTVSS
VL: DIQMTQSPSSVSASVGDRVTITCRASQGISRWLAWYQQKPGKAPKLLIYAASSLQSGVPSRFSGSGSGTDFTLTISSLQPEDFATYCCQQANNFPWTFGQGTKVEIK
modifications: peptides N-terminally acetylated and C-terminally amidated
B18: CL-512191 (antibody, V domains shown)
VH: QVQLVESGGGVVQPGRSLRLSCAASGFTFSNYAMHWVRQAPGKGLEWVAVIWYDGSNKYYADSVKGRFTISRDDSKNTLYLQMNSLRAEDTAVYYCARDKGYRYGFNWFDPWGQGTLVTVSS
VL: QSVLTQPPSVSGAPGQRVTISCTGSSSNIGAGYDVHWYQKLPGTAPKLLIFSNSNRPSGVPDRFSGSKSGTSASLAITGLQAEDEADYYCQSYDSSLSGSRVFGGGTKLTVL
modifications: peptides N-terminally acetylated and C-terminally amidated
B19: CL-445901 (antibody, V domains shown)
VH: QVQLVESGGGVVQPGRSLRLSCAASGFTFSNYGIHWVRQAPGKGLEWVALIWFNGNNKFYADSVEGRFTVSRDNSKNTLYLQLNSLRAEDTAVYYCARAYYFASGNYMDYWGQGTLVTVSS
VL: DIQMTQSPSSVSASMGDRVTITCRASQDISSSLAWYQQKPGKAPILLISFASSLHSGVPSRFSGSGSGTDFTLTISSLQPEDFATYSCQQANSFPWTFGQGTRVEVK
modifications: peptides N-terminally acetylated and C-terminally amidated
B20: CL-460619 (antibody, V domains shown)
VH: QVQLVESGGGVVQPGRSLRLSCAASGFTFDYYGMHWVRQAPGKGLEGVAIIWYDGSNKFYADSVKGRFTISRDNSKNTLYLQMTSLRVEDTAVYYCARDGRIGDPGPYFDYWGQGTLVTVSS
VL: EIVMTQSPATLSVSPGERPTLSCRASQSVSSKLAWYQQKPDQAPRLLIYGASTRATGIPPRFSGSGSGTEFTLTIDSLQSEDFAVYYCQQYHKWWTFGQGTKVEIK
modifications: peptides N-terminally acetylated and C-terminally amidated
B21: CL-510427 (antibody, V domains shown)
VH: QVQLVESGGGVVQPGRSLRLSCAASGFTFSNYGMHWVRQAPGKGLEWVAVIWYDGSKEDYADSVKGRLTISRDNSKNTLYLQMNSLRAEDTAVYYCARDGDSRGWYAFDYWGQGTLVTVSS
VL: not shown
modifications: peptides N-terminally acetylated and C-terminally amidated
B22: CL-509326 (antibody, V domains shown)
VH: QVYLVESGEGVVQPGRSLRLSCAASGFTFSNYGMHWVRQAPGKGLEWVAVIWYNGNNKFYADSVKGRFTISRDNSKNTLFLQMNSLRAEDTAVYFCARSGYSRSSYFDYWGQGTLVTVSS
VL: QSVLTQPPSVSGAPGQRVTISCTGSSSNIGAVYDVHWYQQLPGTAPKLLIYGNTNRPSGVPDRFSGSQSGTSASLAITGLQAEDEADYYCQSYDSSLSGSVFGGGTKLTVL
modifications: peptides N-terminally acetylated and C-terminally amidated
B23: CL-460369 (antibody, V domains shown)
VH: QVQLVESGGGVVQPGRSLRLSCAASGFTFSNYGMHWVRQAPGKGLEWVGIIWYDGSNKYYIDSVKGRFTISRDNSRNTLYLQINSLRAEDTAVYYCARDGGWNDDYYYVMDVWGQGTTVTVSS
VL: DIVMTQSPDSLAVSLGEGATINCKSSQSVLYSSNNKNYLAWYQQKPGQPPKVLIYWASIRESGVPDRFSGSGSGTDFTLTISSLQAEDVAVYYCQQYYSMCSFGQGTKLEIK
modifications: peptides N-terminally acetylated and C-terminally amidated

biological target: PfCSP full length (Plasmodium falciparum (isolate NF54), UniProt P19597); assay: ELISA AUC
Sequence (P19597 20-375): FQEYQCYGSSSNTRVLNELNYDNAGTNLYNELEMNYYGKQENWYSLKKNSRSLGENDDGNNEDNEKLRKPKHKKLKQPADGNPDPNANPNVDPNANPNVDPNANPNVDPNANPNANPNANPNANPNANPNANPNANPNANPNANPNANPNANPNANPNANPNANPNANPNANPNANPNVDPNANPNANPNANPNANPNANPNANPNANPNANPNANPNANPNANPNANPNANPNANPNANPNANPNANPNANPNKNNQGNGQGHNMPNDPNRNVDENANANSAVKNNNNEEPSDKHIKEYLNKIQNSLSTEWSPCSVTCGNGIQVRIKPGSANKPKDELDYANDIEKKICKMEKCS

Binder | binding score
B1 | 1.76
B2 | 1.97
B3 | 2.4
B4 | 2.3
B5 | 2.22
B6 | 2.59
B7 | 2.4
B8 | 2.5
B9 | 2.34
B10 | 2.5
B11 | 2.08
B12 | 2.2
B13 | 2.4
B14 | 2.54
B15 | 2.08
B16 | 2.17
B17 | 2
B18 | 2.31
B19 | 2.4
B20 | 2.2
B21 | 2.39
B22 | 2.19
B23 | 2.3

— article PMC10720262 (2023)
